# Experimental data: US20250381223A1 (UTC THERAPEUTICS SHANGHAI, published 2025)
# B1: anti-mesothelin scFv-M28 (scFv)
# scFv: QSALTQPPSASGSPGQSVTISCSGTSSDVGGYNFVSWYQHHPGKAPKLMIYEVSKRPSGVPDRFSGSKSGNTASLTVSGLQAEDEADYYCSSYAGRNNPYLFGTGTKLTVLGGGGSGGGGSGGGGSQLQLQESGAEVKKPGSSVKVSCKASGGTFSSYAISWVRQAPGQGLEWMGGIIPIFGTANYAQKFQGRVTITADESTSTAYMELSSLRSEDTAVYYCARDLGGYSYGHGLDYWGQGTLVTVSS
# notes: On mRNA-electroporated T cells as CAR
# B2: anti-mesothelin scFv-M24 (scFv)
# scFv: QPVLTQPPSASGTPGQRVTISCSGSSSNIGSNYVYWYQQFPGTAPKLLIYMNNQRPSGVPDRFSGSKSGTSASLAISGLRSEDEADYYCAARDDSLSGYVTFGGGTKLTVLGGGGSGGGGSGGGGSEVHLVESGGGLVQPGGSLRLSCAASGFTFSSYAMSWVRQAPGKGLEWVSAISGSGGSTYYADSVKGRFTISRDNSKNTLYLQMNSLKTEDTAVYYCTRGVATFDYWGQGTLVTVSS
# notes: as for B1
# B3: anti-mesothelin scFv-M22 (scFv)
# scFv: QSALTQPASVSGSPGQSITLSCTGTRRDIGGYEYVSWYQQHPGKAPKLLIFSVNNRPSGVSHRFSGSKSGNTASLTISGLQAEDEAAYFCSSYSSRDTLVLFGGGTKLTVLGGGGSGGGGSGGGGSQVQLVQSGAEVKKPGSSVKVSCKASGGTFSSYAISWVRQAPGQGLEWMGGIIPIFGTANYAQKFQGRVTITADESTSTAYMELSSLRSEDTAVYYCASGRSGSYGLYWGQGTLVTVSS
# notes: as for B1
# B4: anti-mesothelin scFv-M31 (scFv)
# scFv: QSALTQPPSASGSPGQSVTISCTGTSSDIGGYNSVSWYQQHPGKAPKLIIYGVSRRPSGVPDRFSGSKSANTASLTVSGLQAVDEADYYCSSYGGSNNLLFGGGTKLTVLGGGGSGGGGSGGGGSEVHLVESGGGLAQPGGSLRLSCAASGFSFSSSWMAWVRQAPGKGLEWVANIKQDGSSQYYVDSVKGRFTISRDNAKNSLSLQMNSLRAEDTAVYYCARDIWYSIDYWGQGTLVTVSS
# notes: as for B1
# B5: anti-mesothelin scFv-M37 (scFv)
# scFv: DIVMTQTPSSLSASVGDRVTITCRASQGISNYLAWFQQKPGKAPKPLIYAASSLQSGVPSKFSGSGSGTDFTLTISNLQPEDFATYICQQYSSYPITFGQGTRLEIKGGGGSGGGGSGGGGSQLQLQESGPGLVKPSETLSLTCAVSGGSISPYYWTWIRQSPGKAMEWMGYIHYSGRTNYNPSLESRATFSVDTSKNQISLKLNSVTAADTAVYYCTKVGDPGLFDYWGPGTLVTVSS
# notes: as for B1
# B6: anti-mesothelin scFv-M32 (scFv)
# scFv: DIRMTQSPSSLSASVGDRVTVTCQASEDINNSLNWYQQKPGKAPQLLIYDASDLETGVPSRFSGRGSGRDFTLTISSLQPEDFATYYCQQLNSYPLTFGGGTKLEIKGGGGSGGGGSGGGGSQVQLVQSGAEVKKPGASVKVSCKASGFTFIGYYLHWVRQAPGQGLEWMGIINPSGGRTSMAQKFQGRVSMTTDTSTGTVYLDLGRLGSDDTAVYYCARADNWNAGSMDVWGNGTTVTVSS
# notes: as for B1
# B7: anti-mesothelin scFv-M27 (scFv)
# scFv: EIVLTQSPGTLSLSPGERATLSCRASQPIVASHLAWYQHKPGQAPRLLIYGASTRAAGIPDRFSGSGSGTDFTLTISRLEPEDFAVYFCQQYGISPFTFGPGTKVDIKGGGGSGGGGSGGGGSQVQLVQSGAEVKKPGESLKISCQGSGYSFTDYWIGWVRQAPGQGLEWMGWITPNNGNTNYAPKFQGRVTLTTDTSTSTAYMELRSLTSDDTAVYFCARRGRNSSGYLYYYSMDVWGQGTTVTVSS
# notes: as for B1
# B8: anti-mesothelin scFv-M20 (scFv)
# scFv: AIQMTQSPSSLSASVGNRVTITCRASQGISSAVAWYQQKPGKPPKLLISYASSLESGVPSRFSGSGSGTDFSLTISSLQPEDFATYFCQQFNSYPLTFGGGTKVEIKGGGGSGGGGSGGGGSQVQLVQSGAEVRKPGESLKISCKGSGYSFRDSWIAWVRQMPGQGLEWMGIIFPGDSNPIYSPSFQGQVTISADTSISTTFLQWRSLKASDSAIYYCARHAAWGAGWFDPWGQGTLVTVSS
# notes: as for B1
# B9: 4.8 (bispecific antibody)
# scFv-G4S-scFv: QSALTQPPSASGSPGQSVTISCTGTSSDVGAYNFVSWYQQHPGNAPKLIIYDVRKRPSGIPDRFSASKSGNTASLTVSGLQADDEADYYCSSYAGNNNLVFGGGTKLTVLGGGGSGGGGSGGGGSQVQLVQSGAEVKKPGSSVKVSCKASGGTFSSYAISWVRQAPGQGLEWMGMINPSGGTTSYAQKFQGRVTMTRDTSTSTVYMELSSLRPEDTAVYYCARGFRMDQWGQGTLVTVSSGGGGSDIQLTQSPSSLSVSVGDRVTISCRASESVEYYVTSLMQWYQQKPGQAPKLLIFAASNVESGVPSRFSGSGSGTNFTLTISSVQEEDFAMYFCQQSRKVPYTFGGGTKLEIKGGGGSGGGGSGGGGSQVKLQESGPGLVKPSETLSITCTVSGFSLSDYGVHWVRQSPGKGLEWLGVIWAGGGTNYNSALMSRKTISKDNSKSQVFLKMSSLTAADTAVYYCARDKGYSYYYSMDYWGQGTTVTVSS
# notes: expressed from mRNA in T cells
# B10: 4.7 (bispecific antibody)
# scFv-G4S-scFv: QSALTQPPSASGSPGQSVTISCTGTSSDVGAYNFVSWYQQHPGNAPKLIIYDVRKRPSGIPDRFSASKSGNTASLTVSGLQADDEADYYCSSYAGNNNLVFGGGTKLTVLGGGGSGGGGSGGGGSQVQLVQSGAEVKKPGSSVKVSCKASGGTFSSYAISWVRQAPGQGLEWMGMINPSGGTTSYAQKFQGRVTMTRDTSTSTVYMELSSLRPEDTAVYYCARGFRMDQWGQGTLVTVSSGGGGSQVKLQESGPGLVKPSETLSITCTVSGFSLSDYGVHWVRQSPGKGLEWLGVIWAGGGTNYNSALMSRKTISKDNSKSQVFLKMSSLTAADTAVYYCARDKGYSYYYSMDYWGQGTTVTVSSGGGGSGGGGSGGGGSDIQLTQSPSSLSVSVGDRVTISCRASESVEYYVTSLMQWYQQKPGQAPKLLIFAASNVESGVPSRFSGSGSGTNFTLTISSVQEEDFAMYFCQQSRKVPYTFGGGTKLEIK
# notes: as for B9
# B11: 8.6 (bispecific antibody)
# scFv-G4S-scFv: QVQLVQSGAEVKKPGSSVKVSCKASGGTFSSYAISWVRQAPGQGLEWMGMINPSGGTTSYAQKFQGRVTMTRDTSTSTVYMELSSLRPEDTAVYYCARGFRMDQWGQGTLVTVSSGGGGSGGGGSGGGGSQSALTQPPSASGSPGQSVTISCTGTSSDVGAYNFVSWYQQHPGNAPKLIIYDVRKRPSGIPDRFSASKSGNTASLTVSGLQADDEADYYCSSYAGNNNLVFGGGTKLTVLGGGGSQVKLQQSGPGLVTPSQSLSITCTVSGFSLSDYGVHWVRQSPGQGLEWLGVIWAGGGTNYNSALMSRKSISKDNSKSQVFLKMNSLQADDTAVYYCARDKGYSYYYSMDYWGQGTTVTVSSGGGGSGGGGSGGGGSDIVLTQSPASLAVSLGQRATISCRASESVEYYVTSLMQWYQQKPGQPPKLLIFAASNVESGVPARFSGSGSGTNFSLNIHPVDEDDVAMYFCQQSRKVPYTFGGGTKLEIK
# notes: as for B9
# B12: anti-mesothelin scFv-M6 (scFv)
# scFv: EIVMTQSPATLSLSPGERATLSCRASQSIGNSLAWYQQKPGQAPRLLIYDVSNRATGIPARFSGSGSGTDFTLTISSLEPEDFAVYYCQHRYSWPLTFGGGTKVEIKGGGGSGGGGSGGGGSQVQLVQSGGGLVKPGGSLRLSCAASGFTFSDYYMSWIRQAPGKGLEWVSYISSSGSTIYYADSVKGRFTISRDNAKNSLYLQMNSLRAEDTAVYYCARDGYRTHNWFDPWGQGTLVTVSS
# notes: as for B1
# B13: anti-mesothelin scFv-M13 (scFv)
# scFv: AIRMTQSPSSLSASVGDRVTITCRASQGISNSLAWYQQKPGKAPKLLLYAASRLESGVPSRFSGSGSGTDYTLTISSLQPEDFATYYCQQYYSTPFTFGPGTKLEIKGGGGSGGGGSGGGGSQVQLVQSGAEVKKPGSSVKVSCKTSADTFSANTINWVRQAPGHGLEWMGRIIPSLNIRDYAQEFQGRVTFTADESTNTVYMQLTSLRSEDTAVYYCARDPGSTWSPNQFFPHWGQGTLVTVSS
# notes: as for B1
# B14: anti-mesothelin scFv-M7 (scFv)
# scFv: DIRLTQSPSSLSASLGDRVTITCRASQAISSALAWYQQKPGKAPRLLIYDASTLESGVPSRFSGSGSGTDFTLTISSLQPEDFATYYCQQADSFPLTFGGGTKLEIKGGGGSGGGGSGGGGSQVQLVQSGAEVKKSGESLKISCKGSGYGFGAYWIAWVRQMPGKGLEWMGIIYPGDSRVIYSPYFQGQVTISADKSISTAYLQWSSLKASDTAMYYCARFGGPKFATNWFDIWGQGTTVTVSS
# notes: as for B1
# B15: anti-mesothelin scFv-M8 (scFv)
# scFv: DIQLTQSPSSLSASVGDRVTITCRASQSISSSLNWYQQKPGKAPKLLIYAASSLQSGVPSRFSGSGSGTDFTLTISSLQPEDFATYSCQQSYSTPLTFGGGTKVEIKGGGGSGGGGSGGGGSQVHLVESGGGVVQPGRSLRVSCAASGFTFSGYAMYWVRQAPGKGLEYVSAITTNGGSTNYADSVKGRFTISRDNSKNTLYLQMSSLRAGDTAVYYCARGAPGYRGYYMDVWGKGTTVTVSS
# notes: as for B1
# Biological target: T1, mesothelin-Fc recombinant protein (human, UniProt Q13421 296-580, limits assumed)
# T1 construct: construct not described; also called Meso-Fc; not shown: Fc part
# Test: flow cytometry, T cells with CAR mRNA, mesothelin-Fc + PE-anti-IgG-Fc; Control 0.97
# Description: (§1) Mesothelin CAR mRNA obtained in Example 26 above was introduced into A549 tumor cells and T cells by electroporation, and the procedures are as follows: A549 tumor cells and T cells were collected and washed 3 times with the Opti-MEM medium. The cell pellet was resuspended in the Opti-MEM medium and the cell concentration was adjusted to 1×10e7 cells/mL. 10 μg of RNA was aliquoted into 1.5-mL EP tubes, 100 μL of T cells or A549 cells were added, followed by mixing well. 100 μL of cells mixed with RNA were added to the BTX electroporation cuvette and slight tapping was performed to avoid air bubbles. Electroporation was performed using a BTX instrument under the following parameters: for T cells: 500 V voltage, 0.7 ms; for A549 tumor cells: 300 V voltage, 0.5 ms. The cells were then transferred to a pre-warmed medium and cultured at 37° C. The binding of mesothelin CART cells to the mesothelin-Fc recombinant protein was determined by FACS staining. […] T cells without CAR molecules served as the control (“Mock”).
# T1 sequence (Q13421 other isoform, or with tags, fused parts or gaps limits assumed): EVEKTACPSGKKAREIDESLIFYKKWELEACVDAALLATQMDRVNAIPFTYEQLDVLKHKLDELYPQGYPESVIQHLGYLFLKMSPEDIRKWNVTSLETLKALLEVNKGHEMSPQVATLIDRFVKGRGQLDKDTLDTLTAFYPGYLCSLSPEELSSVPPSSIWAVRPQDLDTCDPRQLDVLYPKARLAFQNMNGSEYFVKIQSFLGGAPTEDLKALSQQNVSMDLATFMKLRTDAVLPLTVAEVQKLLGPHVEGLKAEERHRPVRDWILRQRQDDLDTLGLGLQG
row,Binder,percent of cells in the gate
1,B1,82.8%
2,B2,93.6%
3,B3,80%
4,B4,67.9%
5,B5,74.2%
6,B6,84.1%
7,B7,76.3%
8,B8,75.6%

# Biological target: T2, CD40-Fc (human, UniProt P25942)
# T2 construct: part fused to Fc; staining reagent of the flow cytometry; also called recombinant human CD40-Fc antigen protein
# Test: flow cytometry of T cells co-electroporated with 15 µg diabody mRNA and 2 µg M12 CAR mRNA; CD40-Fc + PE-anti-Fc; E1 without mRNA: 0.56
row,Binder,% of cells in the positive gate
1,B9,88.5
2,B10,95.8
3,B11,98.3

# Biological target: T1, mesothelin-Fc recombinant protein
# Test: flow cytometry, T cells with CAR mRNA, mesothelin-Fc + PE-anti-IgG-Fc; Control 0.63
# Description: as §1
row,Binder,percent of cells in the gate
1,B12,83.4%
2,B13,71.1%
3,B14,36.3%
4,B15,80.8%

# Biological target: T2, CD40-Fc
# Test: flow cytometry of T cells co-electroporated with 15 µg diabody mRNA and 0.5 µg 4D5.BBZ mRNA; CD40-Fc + PE-anti-IgG-Fc; E1 without mRNA: 0.27
row,Binder,% of cells in the positive gate
1,B9,90.2
2,B10,96.1
3,B11,98.6
